Target: Htz1(T46C)-2xFLAG (yeast histone H2A.Z with a cysteine probe) (S. cerevisiae)
Experiment: cross-linking

Htz1(T46C)-2xFLAG (yeast histone H2A.Z with a cysteine probe) (natural protein)
percent of bulk H2A.Z in the H2A.Z-to-H2A.Z cross-linked adduct (WT cells): 12%

Hta1(N39C) (yeast histone H2A with a cysteine probe) (natural protein)
percent of bulk H2A.Z in the H2A-to-H2A.Z cross-linked adduct (WT cells): 57%

From article doi:10.1101/2023.12.06.570360
